± gives the uncertainty stated by the source.
experiment: protein stability index of a GFP-peptide fusion (yeast GPS) (PSI 1-4); higher = more stable; sorted into four equal gates, so the index is relative within each strain; settings: pdr5∆
In short: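 The protein stability index of a peptide was calculated by multiplying its read frequency in each gate by that gate's number and adding the products. The peptides were tiled 17-residue stretches of yeast proteins, fused downstream of GFP on a Cherry-expressing plasmid and carried in yeast as a pooled library. Mid-log cultures in leucine-free medium were sorted into four equal gates by GFP/Cherry ratio, and each gate's plasmids were PCR-amplified and Illumina-sequenced.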

Point of comparison: RNSNPENTVGLISGAGA [RPN10], protein stability index 2.81 ± 0.074. Against it:
- RNEDARRNLRYGDRMKL [RPO31] — higher, 3.38 ± 0.084
- RNEKRMFLEFQSTQTDL [SMC2] — lower, 2.48 ± 0.19
- RNLNNLKQENAYLLIRR [RPB8] — higher, 3.16 ± 0.084
- RNNVMLLIATNLKEYNK [SRB8] — lower, 2.11 ± 0.099
- RNSKLLNTKSIQIDEET [MCD1] — lower, 2.63 ± 0.084
- RNSTRSSGFNEDIVGAL [REC8] — higher, 3.58 ± 0.21
- RNVGKTLVNKSTGLKNA [RPS1B] — within error, 2.72 ± 0.097
- RNVGKTLVNKSTGLKSA [RPS1A] — within error, 2.72 ± 0.097
- RNVTKGDIVRMLETAGF [SMC3] — higher, 3.07 ± 0.12
- RPDGVHVINVGKTWEKL [RPS0A] — higher, 3.41 ± 0.15
- RPDIVHTVFTSVNKNKR [RPL4A] — lower, 1.46 ± 0.11
- RPEQLSNIIHDESDTIS [SNF6] — lower, 2.58 ± 0.063
- RPFGVALLIAGHDADDG [PUP2] — within error, 2.66 ± 0.21
- RPLPQWIRLRTNNTIRY [RPL39] — lower, 1.81 ± 0.054
- RPNLPTHNFKLSGVSNS [RGR1] — lower, 1.49 ± 0.062
- RQCFREKANDIGFHKYR [RPS29B] — higher, 3.35 ± 0.13
- RQQQENSSKIITLDLSN [SMC1] — higher, 3.35 ± 0.066
- RRAAYGVVRYVMESGAK [RPS3] — lower, 1.83 ± 0.13
- RRILPKPSRTSRQVQKR [RPS7A] — higher, 3.44 ± 0.15
- RRISSMPGGYFHSEISP [YAR002W/NUP60] — lower, 1.89 ± 0.11
- RRKFDPSSSENVMTPRE [UBP6] — lower, 1.99 ± 0.11
- RRRREGKTDYYQRKRLV [RPL5] — higher, 3.26 ± 0.079
- RRSTPFSKIAEYYRIQK [ESC2] — within error, 2.9 ± 0.094
- RRVPKELAVENPLAKTM [SEC65] — higher, 2.93 ± 0.042
- RSDSYMLHKVLENKADP [RPT6] — higher, 2.99 ± 0.1
- RSEKSTTNAQTKKLIQK [SRP54] — within error, 2.82 ± 0.13
- RSGSNAAASLPSKKLKT [RPC82] — within error, 2.91 ± 0.078
- RSIMKNRSVVYFKLDLT [RRI2] — lower, 1.58 ± 0.22
- RSINNLIQEHDSRKNRE [BRN1] — higher, 3.37 ± 0.052
- RSKNLIFNGETLEDALR [GRR1] — lower, 2.58 ± 0.054
- RSMLTVVRNMLALTTLS [YCG1] — lower, 1.9 ± 0.067
- RSRMLPTITLDDVYRPA [SNF5] — higher, 3.43 ± 0.085
- RSTDVWYEASTWIQQFK [ARP7] — higher, 3.64 ± 0.13
- RTFRLNECVCTPYNADF [RPO31] — lower, 2.4 ± 0.049
- RTKTPGPGGQAALRALA [RPS14B] — lower, 2.55 ± 0.11
- RTMDDIKDSVREVGTKF [ECM29] — higher, 3.47 ± 0.11
- RTPVPSTLMPGGVDVGP [SNF5] — within error, 3 ± 0.15
- RVADEDANLNDLPETGF [IRR1] — higher, 3.22 ± 0.11
- RVARRNAARKAEASGEA [RPS9A] — higher, 3.44 ± 0.17
- RVFRTRFQDGTSVVSIM [SMC2] — lower, 1.3 ± 0.1
- RVHDQPLIWQLLQSSII [POP3] — lower, 1.78 ± 0.07
- RVKDPQWLIMLGICTHL [RIP1] — lower, 2.48 ± 0.055
- RVKIANTSAATVHTATS [SSN2] — lower, 2.65 ± 0.051
- RVLTQDGRVYIGQLMAF [SMB1] — higher, 3.26 ± 0.083
- RVNLSENTPEPDLPALE [SMC4] — lower, 2.32 ± 0.074
- RVWAEYATKRQEAIQQN [PRP8] — lower, 2.56 ± 0.1
- RYADAGNIDTKNNILGS [RRP43] — higher, 3.06 ± 0.05
- RYKPGTVALREIRRFQK [HHT1] — within error, 2.97 ± 0.091
- RYSRQFINNVLSNPSNQ [GRR1] — lower, 2.45 ± 0.082
- SAAGNKAIPTFSFGKPF [YIL149C/MLP2] — within error, 2.86 ± 0.055
- SAAKASQSRSAKAGLTF [HTA1] — within error, 2.96 ± 0.084
- SAIDVLDPLTKDPVDFV [RPN2] — higher, 3.29 ± 0.076
- SAKMILLSDPTITIKSY [PRP8] — lower, 1.91 ± 0.09
- SALIENNLFRIIAELSF [YJL039C/NUP192] — lower, 2.34 ± 0.056
- SANVELFKRDCNQMENL [YCS4] — higher, 3.35 ± 0.09
- SAPAPAAAAPAPVAAAA [FAS2] — higher, 3.21 ± 0.28
- SASHILIPASDLSWSKQ [PRP8] — lower, 1.93 ± 0.058
- SAVIIDEFKDITKEVTQ [YIL149C/MLP2] — within error, 2.89 ± 0.059
- SAYEASMVYSNVGELIE [RRP4] — lower, 2.22 ± 0.054
- SCGYPSAKTRSHNWAAK [RPL37B] — higher, 3.15 ± 0.059
- SCISISDIISMLQISDD [RRI2] — lower, 1.34 ± 0.061
- SCTLLERGHPKDNARIY [POP1] — lower, 2.15 ± 0.064
- SDGEDGHIPWHILAVKK [SSN2] — within error, 2.97 ± 0.15
- SDGQSRVKDIHLRKLLD [RET1] — higher, 2.98 ± 0.067
- SDKPSLPSAVDGENDKK [YLR335W/NUP2] — higher, 3.42 ± 0.086
- SDNIASLQYINIRGNTI [SMD1] — higher, 3.22 ± 0.056
- SDPAAKKTATEPKQKAN [SRP21] — higher, 3.04 ± 0.09
- SDPNNQSLNEMVKLIVM [YJL039C/NUP192] — within error, 2.74 ± 0.052
- SDSLGPDTSNEICDLAY [SRB2] — higher, 3.17 ± 0.064
- SDWNPQADLQAMDRAHR [ISW2] — higher, 3.23 ± 0.12
- SEDVSRDHEKDTYRTLM [YIL149C/MLP2] — higher, 3.41 ± 0.051
- SEKQNDEEAAGASTVMK [PRP8] — higher, 3.18 ± 0.093
- SELIRTTLDAEKVFTQG [FAS1] — higher, 3.16 ± 0.066
- SELQRLSHENNVMLEKI [RPT5] — higher, 3.1 ± 0.068
- SENRDKFLQEFINLLLN [IRR1] — lower, 2.07 ± 0.083
- SESKQLGNTSSVANTPS [SWI3] — lower, 2.56 ± 0.057
- SESVGAFLSFLAYRNYW [YJL039C/NUP192] — lower, 1.97 ± 0.11
- SEVLVDTLDSKSNGSSD [ISW2] — higher, 3.15 ± 0.066
- SFDFGNENEDEDEGTLN [ARP9] — higher, 3.38 ± 0.25
- SFFIASQLQEQFNKILP [FAS1] — higher, 3.13 ± 0.15
- SFKGSPNERKAKQAKIR [SNF2] — higher, 3.56 ± 0.12
- SFQKNSLHNTEKIMENK [AAR2] — higher, 3.22 ± 0.066
- SFSDENSDDFFMDNSYD [ESC2] — lower, 1.8 ± 0.11
- SFYDAIFFNIPLVAHLG [YJL039C/NUP192] — lower, 1.23 ± 0.042
- SGEPIIAATQDFITGSY [RPO31] — higher, 3.3 ± 0.095
- SGHFSTDSRTGQSTILV [CDC53] — within error, 2.8 ± 0.052
- SGITDPYEMYKYVHVSE [FAS2] — lower, 2.63 ± 0.074
- SGLFVDVKKRTYEAIDV [RPB2] — higher, 3.28 ± 0.12
- SGNIQLDEIIEIARQMR [RPL12A] — within error, 3 ± 0.12
- SGNTNGAGSAFGFSSSG [YOR098C/NUP1] — higher, 3.13 ± 0.064
- SGQTFAYGVLDSNYKWD [PRE2] — within error, 2.76 ± 0.098
- SGRCDGYILEGEELAFY [RPS8A] — higher, 3.44 ± 0.12
- SGTSSDPDTKKVKESPA [YIL149C/MLP2] — higher, 3.2 ± 0.046
- SGTYHLNCGNGMGIGFI [POP1] — within error, 2.93 ± 0.063
- SGYVRSRGESDDSLNRL [RPS21A] — lower, 1.85 ± 0.074
- SHFVSAVSTIASISLAI [RPP0] — lower, 1.37 ± 0.073
- SHGNPVVDFLKRNGSTL [FAS1] — higher, 3.17 ± 0.049
- SHILNSHSLALNEITNS [DSN1] — lower, 2.41 ± 0.035

From the supplement of paper PMC9732359
